Measurements from patent US20190263882A1 (Scripps Research, published 2019).
Where a chain is given by its changes, count along the chain named.

T1: relaxin receptor (LGR7)
T1 sequence (Q9HBX9 whole entry, species assumed, looked up): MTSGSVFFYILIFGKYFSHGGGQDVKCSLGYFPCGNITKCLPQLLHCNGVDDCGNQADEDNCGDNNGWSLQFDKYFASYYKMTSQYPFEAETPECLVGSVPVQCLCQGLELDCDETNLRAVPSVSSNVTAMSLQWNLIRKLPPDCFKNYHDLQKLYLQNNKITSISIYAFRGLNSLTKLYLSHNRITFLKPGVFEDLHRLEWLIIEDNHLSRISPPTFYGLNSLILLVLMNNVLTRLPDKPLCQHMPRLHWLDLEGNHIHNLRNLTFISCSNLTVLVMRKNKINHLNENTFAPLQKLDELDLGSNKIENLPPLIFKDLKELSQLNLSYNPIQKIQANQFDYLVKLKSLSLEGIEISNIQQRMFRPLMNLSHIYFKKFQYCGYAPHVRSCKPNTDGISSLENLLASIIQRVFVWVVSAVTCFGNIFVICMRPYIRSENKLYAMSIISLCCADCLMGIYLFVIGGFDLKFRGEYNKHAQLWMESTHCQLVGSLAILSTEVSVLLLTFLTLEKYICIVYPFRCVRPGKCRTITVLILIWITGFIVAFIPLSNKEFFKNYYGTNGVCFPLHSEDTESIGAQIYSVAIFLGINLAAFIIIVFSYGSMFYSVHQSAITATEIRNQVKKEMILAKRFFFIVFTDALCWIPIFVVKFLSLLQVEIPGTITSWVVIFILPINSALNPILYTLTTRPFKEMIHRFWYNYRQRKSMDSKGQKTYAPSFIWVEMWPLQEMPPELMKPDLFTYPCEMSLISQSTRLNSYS

B1: RLX304 (antibody, human IgG1, kappa)
heavy: DSWMEEVIKLCGRELVRAQIAICGMSTWSGGGGSGGGGQLYSALANKCCHVGCTKRSLARFCGGGGSGGGGSGGGGSGQVTLRESGPALVKPTQTLTLTCTFSGFSLSTSGMSVGWIRQPPGKALEWLADIWWDDKKDYNPSLKSRLTISKDTSKNQVVLKVTNMDPADTATYYCARSMITNAYFDVWGAGTTVTVSSASTKGPSVFPLAPSSKSTSGGTAALGCLVKDYFPEPVTVSWNSGALTSGVHTFPAVLQSSGLYSLSSVVTVPSSSLGTQTYICNVNHKPSNTKVDKKVEPKSCDKTHTCPPCPAPPVAGPSVFLFPPKPKDTLMISRTPEVTCVVVDVSHEDPEVKFNWYVDGVEVHNAKTKPREEQYNSTYRVVSVLTVLHQDWLNGKEYKCKVSNKGLPSSIEKTISKAKGQPREPQVYTLPPSRDELTKNQVSLTCLVKGFYPSDIAVEWESNGQPENNYKTTPPVLDSDGSFFLYSKLTVDKSRWQQGNVFSCSVMHEALHNHYTQKSLSLSPGK
light: DIQMTQSPSTLSASVGDRVTITCKCQLSVGYMHWYQQKPGKAPKLLIYDTSKLASGVPSRFSGSGSGTAFTLTISSLQPDDFATYYCFQGSGYPFTFGGGTKLEIKRTVAAPSVFIFPPSDEQLKSGTASVVCLLNNFYPREAKVQWKVDNALQSGNSQESVTEQDSKDSTYSLSSTLTLSKADYEKHKVYACEVTHQGLSSPVTKSFNRGEC
B2: RLX300 (no mutations) (antibody, human IgG1, kappa)
heavy: B1 heavy with A183W
light: B1 light
notes: also called SC3.s
B3: RLX301 (antibody, human IgG1, kappa)
heavy: B1 heavy with N182F, A183G, Y184G
light: B1 light
B4: RLX303 (antibody)
heavy: B1 heavy with N182F, A183G, Y184G
light: B1 light with S91N
B5: RLX305 (antibody)
heavy: B1 heavy
light: B1 light with G90Y
B6: RLX306 (antibody)
heavy: B1 heavy
light: B1 light with S91N
B7: SC3: Palivizumab (null, 16GS)-relaxin2(9GS) and Palivizumab L (antibody, human IgG1, kappa)
heavy: B1 heavy with A183W
light: B1 light with A69E
B8: SCX1: palivizumab(NH1, 16GS)-relaxin2(9GS) and palivizumab L (antibody, human IgG1, kappa)
heavy: B1 heavy
light: B1 light with A69E
B9: SCX2: palivizumab(NH2, 16GS)-relaxin2(9GS) and palivizumab L (antibody, human IgG1, kappa)
heavy: B1 heavy with A183G
light: B1 light with A69E
B10: SCX3: palivizumab(NH3, 16GS)-relaxin2(9GS) and palivizumab L (antibody, human IgG1, kappa)
heavy: B1 heavy with N182F, A183G, Y184G
light: B1 light with A69E
B11: Palivizumab null (antibody, human IgG1, kappa)
heavy: QVTLRESGPALVKPTQTLTLTCTFSGFSLSTSGMSVGWIRQPPGKALEWLADIWWDDKKDYNPSLKSRLTISKDTSKNQVVLKVTNMDPADTATYYCARSMITNWYFDVWGAGTTVTVSSASTKGPSVFPLAPSSKSTSGGTAALGCLVKDYFPEPVTVSWNSGALTSGVHTFPAVLQSSGLYSLSSVVTVPSSSLGTQTYICNVNHKPSNTKVDKKVEPKSCDKTHTCPPCPAPPVAGPSVFLFPPKPKDTLMISRTPEVTCVVVDVSHEDPEVKFNWYVDGVEVHNAKTKPREEQYNSTYRVVSVLTVLHQDWLNGKEYKCKVSNKGLPSSIEKTISKAKGQPREPQVYTLPPSRDELTKNQVSLTCLVKGFYPSDIAVEWESNGQPENNYKTTPPVLDSDGSFFLYSKLTVDKSRWQQGNVFSCSVMHEALHNHYTQKSLSLSPGK
light: B1 light with A69E
notes: also called null palivizumab antibody

How the values were obtained:
RSV F protein [1] = target: T2, RSV F protein (UniProt P03420 26-524); assay: ELISA, 100 ng/well RSV F protein coated, HRP anti-human IgG (Fc specific), QuantaBlu fluorescence (10 min)
Protocol: Optimized palivizumab-relaxin fusion protein antibodies were tested for binding to RSV by ELISA assay. 100 ng/well RSV F protein was coated on 96-well plate in PBS 4° C. overnight. The plate was blocked with 2% BSA/PBS at room temperature for 1 hr, then washed twice with 200 μL PBS. The fusion antibodies were incubated at various concentrations (as indicated in FIG. 4) in 2% BSA/PBS at room temperature for 1 hr. Plates were washed with PBS (0.025% Tween-20 in PBS) four times and washed with PBS one time. […] Binding was quantified using Spectramax fluorescence plate reader with excitation at 325 nm and emission at 420 nm. Binding Kd values were determined (Table 14).

relaxin receptor (LGR7) [2] = target: T1, relaxin receptor (LGR7); assay: cell-based or functional assay
RSV F protein [3] = target: T2, RSV F protein; assay: plate binding assay, RSV F protein coated, anti-human IgG (Fc specific) detection, fluorescence read at 25 min
RSV F protein [4] = target: T2, RSV F protein; assay: plate binding assay, RSV F protein coated, anti-human IgG (Fc specific) detection, fluorescence read at 50 min
relaxin receptor (LGR7) [5] = target: T1, relaxin receptor (LGR7); assay: cell-based or functional assay; remark: listed apart in the source
LGR8 = assay: cell-based or functional assay
LGR8, sequence (Q8WXD0 whole entry): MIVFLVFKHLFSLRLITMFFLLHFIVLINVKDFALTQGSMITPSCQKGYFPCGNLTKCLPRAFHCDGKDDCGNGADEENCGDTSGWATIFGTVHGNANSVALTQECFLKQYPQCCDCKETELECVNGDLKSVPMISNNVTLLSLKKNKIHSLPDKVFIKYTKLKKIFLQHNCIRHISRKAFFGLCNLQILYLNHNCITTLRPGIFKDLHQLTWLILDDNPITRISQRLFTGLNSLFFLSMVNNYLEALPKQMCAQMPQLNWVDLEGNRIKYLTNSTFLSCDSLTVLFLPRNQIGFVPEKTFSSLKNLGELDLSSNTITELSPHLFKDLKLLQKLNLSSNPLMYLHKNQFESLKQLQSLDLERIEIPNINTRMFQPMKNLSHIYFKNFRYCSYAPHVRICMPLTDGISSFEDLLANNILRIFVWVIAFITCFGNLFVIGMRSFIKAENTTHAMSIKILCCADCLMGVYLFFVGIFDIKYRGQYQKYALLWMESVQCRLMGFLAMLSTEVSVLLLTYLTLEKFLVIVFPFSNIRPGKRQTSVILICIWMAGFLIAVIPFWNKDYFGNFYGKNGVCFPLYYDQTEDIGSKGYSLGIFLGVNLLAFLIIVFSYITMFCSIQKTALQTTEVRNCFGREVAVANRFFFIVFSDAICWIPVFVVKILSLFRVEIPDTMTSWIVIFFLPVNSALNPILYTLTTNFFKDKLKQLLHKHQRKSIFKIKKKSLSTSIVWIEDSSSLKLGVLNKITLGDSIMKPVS

T2 sequence (P03420 26-524): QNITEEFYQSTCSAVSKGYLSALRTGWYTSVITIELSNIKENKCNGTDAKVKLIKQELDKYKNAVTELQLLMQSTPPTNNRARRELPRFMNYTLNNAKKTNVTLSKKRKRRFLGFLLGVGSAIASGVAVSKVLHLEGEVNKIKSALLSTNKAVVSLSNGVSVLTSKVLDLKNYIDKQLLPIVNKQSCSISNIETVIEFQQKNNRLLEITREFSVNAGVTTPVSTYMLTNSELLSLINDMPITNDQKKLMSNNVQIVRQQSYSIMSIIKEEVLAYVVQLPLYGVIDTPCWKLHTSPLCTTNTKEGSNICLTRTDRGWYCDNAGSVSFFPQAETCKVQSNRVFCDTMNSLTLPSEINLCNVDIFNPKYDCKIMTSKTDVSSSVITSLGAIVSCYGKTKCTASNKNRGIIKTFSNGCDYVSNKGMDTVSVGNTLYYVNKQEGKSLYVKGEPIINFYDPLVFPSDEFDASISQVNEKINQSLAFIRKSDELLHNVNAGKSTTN

Binder	Kd (RSV F protein [1])	EC50, CRE-luciferase reporter assay (relaxin receptor (LGR7) [2])	Kd (RSV F protein [3])	Kd (RSV F protein [4])	LGR7 (relaxin receptor (LGR7) [5])	LGR8 (LGR8)
B1	38.2 nM	0.078 nM	–	–	–	–
B2	0.301 nM	–	–	–	–	–
B3	79.3 nM	0.072 nM	–	–	–	–
B4	52.1 nM	–	–	–	–	–
B5	75.2 nM	–	–	–	–	–
B6	82.7 nM	–	–	–	–	–
B7	–	–	0.425 nM	0.249 nM	0.205 nM	177 nM
B8	–	0.0691 nM	112 nM	83.1 nM	0.129 nM	939 nM
B9	–	0.0612 nM	14.4 nM	9.03 nM	0.115 nM	327 nM
B10	–	0.129 nM	163 nM	107 nM	0.115 nM	16300 nM
B11	–	–	0.8 nM	0.49 nM	–	–
